Experimental findings from patent US20140161790A1 (Xencor, published 2014) are described below.

The target in assay [1] is T1, human FcRn (heterodimer of alpha chain and beta2-microglobulin) (human, UniProt P55899 24-297; P61769 21-119, limits assumed).
T1 construct: Co-expressed in HEK293T cells; also called hFcRn; human neonatal Fc receptor
Briefly: SPR, FcRn coupled directly to CM5 chip, antibody analyte at 200 nM bound at pH 6.0, dissociation at pH 7.4; avid format, relative values only. (In SPR one partner is held on a chip, and binding of the other changes the refractive index at the surface.)

The target of assay [2] is T1, human FcRn (heterodimer of alpha chain …). Kind of assay: SPR as above, pH 6.0; fold KD against native IgG1.
Assay [3] has the same target. Kind of assay: SPR (Biacore 3000), antibody captured on immobilized VEGF, human FcRn as analyte, pH 6.0, 1:1 Langmuir fit.

T1 sequence (P55899 24-297 limits assumed, chain 1 of 2): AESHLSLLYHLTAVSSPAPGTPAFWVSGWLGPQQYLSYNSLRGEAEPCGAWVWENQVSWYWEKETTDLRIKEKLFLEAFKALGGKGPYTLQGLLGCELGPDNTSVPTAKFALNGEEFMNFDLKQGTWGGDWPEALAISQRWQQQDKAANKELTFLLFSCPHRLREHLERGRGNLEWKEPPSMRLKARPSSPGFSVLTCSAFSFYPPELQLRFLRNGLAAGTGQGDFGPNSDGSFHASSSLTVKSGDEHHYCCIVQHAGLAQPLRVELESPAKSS
T1 sequence (P61769 21-119 limits assumed, chain 2 of 2): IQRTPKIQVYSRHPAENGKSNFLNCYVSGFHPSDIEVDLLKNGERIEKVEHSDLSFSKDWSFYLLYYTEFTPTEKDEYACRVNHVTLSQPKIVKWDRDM

B1: bevacizumab IgG1 Fc variant N434S (antibody)
heavy: not shown
light: not shown
notes: copies: 2 + 2
For orientation: koff means a measure of how fast the partners let go of each other. A lower koff goes with slow dissociation. On to B1, for which the off-rate (koff) in assay [1] was found to be 0.29 s⁻¹.

B2: bevacizumab IgG1 Fc variant M428L/N434S (antibody)
heavy: not shown
light: not shown
notes: also called LS; LS bevacizumab variant; copies: 2 + 2
The molecule B2 had an off-rate (koff) in assay [1] of 0.33 s⁻¹.

B3: bevacizumab IgG1 Fc variant M252Y/S254T/T256E (antibody)
heavy: EVQLVESGGGLVQPGGSLRLSCAASGYTFTNYGMNWVRQAPGKGLEWVGWINTYTGEPTYAADFKRRFTFSLDTSKSTAYLQMNSLRAEDTAVYYCAKYPHYYGSSHWYFDVWGQGTLVTVSSASTKGPSVFPLAPSSKSTSGGTAALGCLVKDYFPEPVTVSWNSGALTSGVHTFPAVLQSSGLYSLSSVVTVPSSSLGTQTYICNVNHKPSNTKVDKKVEPKSCDKTHTCPPCPAPELLGGPSVFLFPPKPKDTLYITREPEVTCVVVDVSHEDPEVKFNWYVDGVEVHNAKTKPREEQYNSTYRVVSVLTVLHQDWLNGKEYKCKVSNKALPAPIEKTISKAKGQPREPQVYTLPPSREEMTKNQVSLTCLVKGFYPSDIAVEWESNGQPENNYKTTPPVLDSDGSFFLYSKLTVDKSRWQQGNVFSCSVMHEALHNHYTQKSLSLSPGK
light: not shown
notes: also called YTE; copies: 2 + 2
What is called Kd is the free concentration of one partner at which half of the binding sites on the other are occupied at equilibrium, for simple one-to-one binding. Low values mean a tighter complex, high ones a looser complex. A word on the kon: it is a measure of how fast the partners come together. A high value points to fast association. For the molecule B3, the “Fold KD” value in assay [2] was 7.24 fold. In addition, in assay [3], the Kd is 340 nM, the koff turned out to be 0.0549 s⁻¹ and the kon came out at 162000 M⁻¹ s⁻¹. The molecule further registered a koff in assay [1] of 0.32 s⁻¹.

B4: bevacizumab IgG1 Fc variant V259I/V308F (antibody)
heavy: not shown
light: not shown
notes: also called IF; copies: 2 + 2
For the molecule B4, in assay [2], the “Fold KD” value turned out to be 5.8 fold. In assay [3], this molecule came in with an equilibrium dissociation constant (Kd) of 424 nM, an off-rate constant (koff) of 0.0752 s⁻¹ and an association rate constant (kon) of 178000 M⁻¹ s⁻¹. This molecule also gave a koff in assay [1] of 0.6 s⁻¹.

B5: bevacizumab IgG1 Fc variant V259I/V308F/M428L (antibody)
heavy: EVQLVESGGGLVQPGGSLRLSCAASGYTFTNYGMNWVRQAPGKGLEWVGWINTYTGEPTYAADFKRRFTFSLDTSKSTAYLQMNSLRAEDTAVYYCAKYPHYYGSSHWYFDVWGQGTLVTVSSASTKGPSVFPLAPSSKSTSGGTAALGCLVKDYFPEPVTVSWNSGALTSGVHTFPAVLQSSGLYSLSSVVTVPSSSLGTQTYICNVNHKPSNTKVDKKVEPKSCDKTHTCPPCPAPELLGGPSVFLFPPKPKDTLMISRTPEITCVVVDVSHEDPEVKFNWYVDGVEVHNAKTKPREEQYNSTYRVVSVLTFLHQDWLNGKEYKCKVSNKALPAPIEKTISKAKGQPREPQVYTLPPSREEMTKNQVSLTCLVKGFYPSDIAVEWESNGQPENNYKTTPPVLDSDGSFFLYSKLTVDKSRWQQGNVFSCSVLHEALHNHYTQKSLSLSPGK
light: not shown
notes: also called IFL; copies: 2 + 2
As to B5, in assay [2], the “Fold KD” value turned out to be 19.8 fold. For the same molecule, in assay [3], the affinity, expressed as Kd, was 124 nM; the koff amounted to 0.0238 s⁻¹; the kon came to 192000 M⁻¹ s⁻¹. The same molecule returned a koff in assay [1] of 0.13 s⁻¹.
